assay: yeast display, Sf9 membrane polyspecificity reagent, FACS + sequencing; frameworks hold sequencing errors
In short: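 Nanobodies from a synthetic yeast display library (Saccharomyces cerevisiae BJ5465), induced 36–48 hours with galactose, were stained 1 hour at 4 °C with 10% biotinylated, detergent-solubilized Sf9 membrane reagent, enriched on streptavidin microbeads, then FACS-sorted. Anti-HA (expression) and streptavidin (reagent binding) fluorescence set low and high (top ~1%) gates. Polyreactivity labels come from the gate of origin. Genes were colony-PCR amplified, MiSeq 2 × 250 sequenced and filtered by CDR length.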

Sequence	polyreactivity (PSR sort gate)
QVQLVESGGGLVQAGGSLRLSCAASGSTFDPNVMGWYRQAPGKERELVAAITWSGGSTSYADSVKGRFTISRDNAKNTVYLQMNSLKPEDTAVYYCAADWHSWRWGYYYWGQGTQVTVSS	low polyreactivity
QVQLVESGGGLVQAGGSLRLSCAASGSTFDPNVMGWYRQAPGNERELVADITTTGVSTYYADSVKGRFTISRDNAKNTVYLQMNSLKPEDTAVYYCNAKLYWYLTRDAYRYRYTYDYWGQGTQVTVSS	low polyreactivity
QVQLVESGGGLVQAGGSLRLSCAASGSTFDQYAMGWYRQAPGKERELVAAISWSGGRTSYAVSVKGRFTISRDTAKNTVYLQMNSLKPEDTAVYYCAADLWFWGFHYPSRMDYWGQGTQVTVSS	high polyreactivity
QVQLVESGGGLVQAGGSLRLSCAASGSTFDRNAMGWYRQAPWKERELVATINSDDSKNYADSVKGRFTISRDNAKNTVYLQMNSLKPEDTAVYYCAARLYVTPILSYVERYTNDYWGQGTQVTVSS	low polyreactivity
QVQLVESGGGLVQAGGSLRLSCAASGSTFDRNVMGWNRQAPGKERELVAAISRVSSTNYADSVKGRFTISRDNAKNTVYLQMHSLKPEDTAVYYCAADRAGSIMNYWGQGSQVTVSS	low polyreactivity
QVQLVESGGGLVQAGGSLRLSCAASGSTFDRNVMGWYRQAPGKERELVAAISRVSSTNYADSVKGRFTISRDNAKNTVYLQMNSLKPEDTAVYYCNARRESYYQRYRVDYWGQGTQVTVSS	low polyreactivity
QVQLVESGGGLVQAGGSLRLSCAASGSTFDRYGMGWYRQAPGKERELVAAITWSVGSTYYADSVKGRFTISRDNAKNTVYLQMNSLKPEDTAVYYCNAGVLGVYTSYNGDDYWGQGTQVTVST	low polyreactivity
QVQLVESGGGLVQAGGSLRLSCAASGSTFDRYGMGWYRQAPGKERELVARITSSGASTYYADSVKGRFTISRDNAMNTVYLQMNSQKPEDTAVYYCAADEGYPGDGDYWGQGTQVTVSS	low polyreactivity
QVQLVESGGGLVQAGGSLRLSCAASGSTFDSNAMGWYRQAPGKERELVAAIRFSGGSTNYADSVKGRFTISRDNAKNTVYLQMNSLKPEDTAVYYCAARYPNLRRRWYYYWGQGTQVTVSS	high polyreactivity
QVQLVESGGGLVQAGGSLRLSCAASGSTFDSNVMGWYRQAHGKERELLAAINYSGVRTYYADSVKGRFTISRDNAKNTVYLQMNSLKPEDTAVYYCNARLFSYRYPEGGYWGQGTQVTVSS	high polyreactivity
QVQLVESGGGLVQAGGSLRLSCAASGSTFDSYAMGWYRQAPGKERELVAALSYNGSSTDYADSVKGRFTISRDNAKNTVDEQMNSLKPEDTAVYYCAAAPGFSAGHHDYWGQGTQVTVSS	low polyreactivity
QVQLVESGGGLVQAGGSLRLSCAASGSTFDTNAMGWYRQAPGKERELVAAISWSRDRTYYADSVKGRFTISRDNAKNTVYLQMNSLNPEDTAVYYCNAYLSFRRQYGYWGQGTQGTVSS	high polyreactivity
QVQLVESGGGLVQAGGSLRLSCAASGSTFDTNDMGWDRQAPGKERELVAAISSGGDYADSVKGRFTISRDNAKNTVYLQLNSLKPEDTAVYYCAKADTKWGQGTQVTVSS	low polyreactivity
QVQLVESGGGLVQAGGSLRLSCAASGSTFDTYAKGWYRQAPGQERELVAAISYRGGNTYYADSVKGRFTISRDNAKNTVYLQMNSLKPEDTAVYYCNAGVSIGRSRRYDYWGQGTHVTVSS	low polyreactivity
QVQLVESGGGLVQAGGSLRLSCAASGSTFDTYAMGWYRQAPGKERELVAAINSGGGTNYADSVKGRFTISRDNAKNTVYLQMNSLKPEDTAVYYCATDSRRDAGGGDFDYWGQGTQVTVSS	low polyreactivity
QVQLVESGGGLVQAGGSLRLSCAASGSTFDTYAMGWYRQAPGKERELVAAISSGGSTNYADSVKGRFTISRDNAKNTVYLQMNSLKPEDTAVYYCADSYKSVFPVYGTLDEYWGQGTQVTVSS	low polyreactivity

Sequence	polyreactivity (PSR sort gate)
QVQLVESGGGLVQAGGSLRLSCAASGSTFDVNAMGWYRQAPGKERELVAAISFSGGSTYYADSVKGRFTISRDNAKNTVYLQMNSLKPEDTAVYYCAAEEWRSYYEEYDYWGQGTQVTVSS	low polyreactivity
QVQLVESGGGLVQAGGSLRLSCAASGSTFDVNAMGWYRQAPGKERELVAAISWNSGSTYYADSVKGRFTISRDNAMITVFLQMNSLKPEDTAVYYCAATYGTGRRSKYGYWGQGSQVTVSS	high polyreactivity
QVQLVESGGGLVQAGGSLRLSCAASGSTFDVNAMGWYRQAPGKERELVAVITSGGSTNYADSVKGRFTISRDNAKNTVYLQMNRLKPEDTAVYYCAKDSRTLYDYWGQGTQVTVSS	low polyreactivity
QVQLVESGGGLVQAGGSLRLSCAASGSTFDVYAMGWYRQAPGKERELVAAIRSSGGSTFYADSVKGRFTISRDNAKNIVYLQMNSLKPEDTAVYYCAARSFVVSGYNKYYEYGYWGQGTQVTVSS	low polyreactivity
QVQLVESGGGLVQAGGSLRLSCAASGSTFDVYAMGWYRQAPGKERELVAAITWDGDRTYYADSVKGRFTISRDNAKNTVYLQMNSLKPEDTAVYYCNVDTYVEYPHDYWGQGTQVTVSS	low polyreactivity
QVQLVESGGGLVQAGGSLRLSCAASGSTFDWYAMGWYRQAPGKERELVAAISRGSRTYYADSVKGRFTISRDNAKNTVYLQKNSLKPEDTAVYYCARDKPTSYPDYYYWGQGTQVTVSS	high polyreactivity
QVQLVESGGGLVQAGGSLRLSCAASGSTFDWYAMGWYRQAPGKERELVARIRWSGGSTYYADSVKGRFTISRDNAKNTVYLQMNSLKPEDTAVYYCAARTQTWPQYGYWGQGTQVTVSS	high polyreactivity
QVQLVESGGGLVQAGGSLRLSCAASGSTFDWYAMGWYRQATGKETELVAAISWSDTSTYYADSVKGRFTISRDNAKNTVYLKMNSLKPEDTAVYYCNDEALYYYDSYDYWGQGTQVTVSS	high polyreactivity
QVQLVESGGGLVQAGGSLRLSCAASGSTFDYNAMGWYRQAPGKERELVAAITSTGGNTYYADSVKGRFTISRDHAKNTDYLQMNSLKPEDTAVYYCNKDVARYPYGNFDYWGQGTQVTVSS	low polyreactivity
QVQLVESGGGLVQAGGSLRLSCAASGSTFDYNAMGWYRQAPGKERELVADITGSGASTSYADSVKGRFTISRDNAKNTVYLQMNSLKPEDTAVYFCAADQTPVGQVYYGTLSIRDYWGQGTQVTVSS	low polyreactivity
QVQLVESGGGLVQAGGSLRLSCAASGSTFDYNAMGWYRQAPGTERELVAAISRGGNTYYADSVKGRFTISRDNAKNTVYLQMNSLKPEDTAVYYCAKDSYGSYRFVRKRQKAYGYWGQGTQVTVSS	low polyreactivity
QVQLVESGGGLVQAGGSLRLSCAASGSTFDYYAMGWDRQAPGKERELVAAIRWSSGRTYYADSVKGRFTISRDNAKNTVYLQMHSLKPEDTAVYYCASAGHRGQGGPRYNYWGQGTQVTVSS	high polyreactivity
QVQLVESGGGLVQAGGSLRLSCAASGSTFDYYAMGWYRQAPGKERELVAAISRTGGRTYYADSVKGRFTISRDNAKNTVYLQMNSLKPEDTAVYYCATRNGRQYSVSYRYYYWGQGTQVTVSS	low polyreactivity
QVQLVESGGGLVQAGGSLRLSCAASGSTFDYYAMGWYRQAPGKERELVATISYSDGTTYYADSVKGRFTISRDNAKNTVYLQMNSLKPEDTAVYYCAADTYVYEEQNVWRMDYWGQGTQVTVSS	low polyreactivity
QVQLVESGGGLVQAGGSLRLSCAASGSTFDYYAMGWYRQAPGKERELVAVISSSGGSTYYADSVKGRFTISRDNAKNTVYLQMNSLKPEDTAVYYCAALYRNYGSSYAYYYWGQGTQVTVSS	low polyreactivity
